By Km is commonly meant the concentration of substrate that gives half-maximal velocity. A word on the Kd: it is a measure of binding affinity in units of concentration. Higher therefore signals weaker binding. The term koff denotes the first-order rate constant of dissociation. A higher koff goes with fast dissociation. Broadly, the kon is the rate constant with which the complex forms. A lower kon goes with slower complex formation. By stoichiometry N is commonly meant a count of units in the complex or per binding partner.

Changes are numbered by the printed parent chain. Names and notes keep the numbering of the source.

Results on 14 molecules are retold here after article PMC11073785, “YeeD is an essential partner for YeeE-mediated thiosulfate uptake in bacteria and regulates thiosulfate ion decomposition” (PLOS Biology, 2024).

To fix the notation:
B1: StYeeE (Winmispira thermophila DSM 6578) (protein)
chain: MIWTGLLVGFLFGIVLQRGRICFNSAFRDVLLFKDNYLFKLAVFTLALEMILFVLLSQVGLMQMNPKPLNLVGNIIGGFVFGLGMVLAGGCASGVTYRVGEGLTTAWFAALFYGLGAYATKSGAFSWWLSWVGQFKSPLSVEESAYYVKGAGPTISSVLGLNPWIPALVIAALFILWAFGTKTTSRETKFNWKIASVCLALVAGLGFITSTLSGRKYGLGITGGWINLFQGFLTNSPLNWEGLEIVGIILGAGVAAAVAGEFKLRMPKNPVTYLQVGIGGLLMGIGAVTAGGCNIGHFLTGVPQLALSSWLASIFFILGNWTMAWILF
notes: 1-328 aa with C-terminal …-His8, His-tag removed by TEV; expressed in E. coli C41(DE3), purified in DDM, reconstituted in E. coli total lipid liposomes
B2: Spirochaeta thermophila YeeD (WT), His6-tagged (natural protein, UniProt G0GAP7 1-80, looked up)
chain: MANYQVSKEIDVRGEVCPIPDVEAKRAVQSANDGEIILVRIDYPLSKERIPETVKKLGSEVLEIEEAAPGEWNIYIKVKK
notes: YeeD of Spirochaeta thermophila, residues 1-80, UniProt G0GAP7; 11.3 kDa with the tag; As purified, C17 is partly modified (mass spectrometry: -SH, -S-O2-/-S-S-, -S-SO3-); also called StYeeD; StYeeD(WT); source: E. coli C41(DE3), purified (Ni-NTA, Superdex 200)
B3: StYeeD(E48A), His6-tagged (natural protein, Spirochaeta thermophila, UniProt G0GAP7 1-80, looked up)
chain: B2 chain with E48A
notes: YeeD of Spirochaeta thermophila, residues 1-80, UniProt G0GAP7, with E48A; source: E. coli C41(DE3), purified (Ni-NTA, Superdex 200)
B4: StYeeD(L45A), His6-tagged (natural protein, Spirochaeta thermophila, UniProt G0GAP7 1-80, looked up)
chain: B2 chain with L45A
notes: YeeD of Spirochaeta thermophila, residues 1-80, UniProt G0GAP7, with L45A; source: E. coli C41(DE3), purified (Ni-NTA, Superdex 200)
B5: StYeeD(R49A), His6-tagged (natural protein, Spirochaeta thermophila, UniProt G0GAP7 1-80, looked up)
chain: B2 chain with R49A
notes: YeeD of Spirochaeta thermophila, residues 1-80, UniProt G0GAP7, with R49A; source: E. coli C41(DE3), purified (Ni-NTA, Superdex 200)
B6: StYeeD(L38A), His6-tagged (natural protein, Spirochaeta thermophila, UniProt G0GAP7 1-80, looked up)
chain: B2 chain with L38A
notes: YeeD of Spirochaeta thermophila, residues 1-80, UniProt G0GAP7, with L38A; source: E. coli C41(DE3), purified (Ni-NTA, Superdex 200)
B7: StYeeD(E15A), His6-tagged (natural protein, Spirochaeta thermophila, UniProt G0GAP7 1-80, looked up)
chain: B2 chain with E15A
notes: YeeD of Spirochaeta thermophila, residues 1-80, UniProt G0GAP7, with E15A; source: E. coli C41(DE3), purified (Ni-NTA, Superdex 200)
B8: StYeeD(E9A), His6-tagged (natural protein, Spirochaeta thermophila, UniProt G0GAP7 1-80, looked up)
chain: B2 chain with E9A
notes: YeeD of Spirochaeta thermophila, residues 1-80, UniProt G0GAP7, with E9A; source: E. coli C41(DE3), purified (Ni-NTA, Superdex 200)
B9: StYeeD(V16A), His6-tagged (natural protein, Spirochaeta thermophila, UniProt G0GAP7 1-80, looked up)
chain: B2 chain with V16A
notes: YeeD of Spirochaeta thermophila, residues 1-80, UniProt G0GAP7, with V16A; source: E. coli C41(DE3), purified (Ni-NTA, Superdex 200)
B10: StYeeD(E63A), His6-tagged (natural protein, Spirochaeta thermophila, UniProt G0GAP7 1-80, looked up)
chain: B2 chain with E63A
notes: YeeD of Spirochaeta thermophila, residues 1-80, UniProt G0GAP7, with E63A; source: E. coli C41(DE3), purified (Ni-NTA, Superdex 200)
B11: StYeeD(K8A), His6-tagged (natural protein, Spirochaeta thermophila, UniProt G0GAP7 1-80, looked up)
chain: B2 chain with K8A
notes: YeeD of Spirochaeta thermophila, residues 1-80, UniProt G0GAP7, with K8A; source: E. coli C41(DE3), purified (Ni-NTA, Superdex 200)
B12: StYeeD(Y43A), His6-tagged (natural protein, Spirochaeta thermophila, UniProt G0GAP7 1-80, looked up)
chain: B2 chain with Y43A
notes: YeeD of Spirochaeta thermophila, residues 1-80, UniProt G0GAP7, with Y43A; source: E. coli C41(DE3), purified (Ni-NTA, Superdex 200)
B13: StYeeD(V39A), His6-tagged (natural protein, Spirochaeta thermophila, UniProt G0GAP7 1-80, looked up)
chain: B2 chain with V39A
notes: YeeD of Spirochaeta thermophila, residues 1-80, UniProt G0GAP7, with V39A; source: E. coli C41(DE3), purified (Ni-NTA, Superdex 200)

In the first series the target is T1, StYeeD (Winmispira thermophila, UniProt G0GAP7).
T1 construct: gene Spith_0735; expressed in E. coli C41(DE3)
T1 sequence (G0GAP7 1-80): B2 chain
Briefly: H2S release with fluorescent probe HSip-1; adduct by MALDI-TOF MS. Type of series: biochemical. Particulars: 500 μM thiosulfate, 24.1 μM YeeD, 70 μM β-ME, pH 8.0, 37°C; covalent (C17).
For the molecule `O=S(O)(O)=S` [thiosulfate ion], the “H2S release with fluorescent probe HSip-1; adduct by MALDI-TOF MS” value was “suggesting that YeeD catalyzes the decomposition of thiosulfate as a substrate”.

Substrate in another series: O=S(O)(O)=S
Put plainly: solid-supported membrane electrophysiology of proteoliposomes, negative peak area. Particulars: transport, Na2S2O3 1.25-40 mM exchanged against equal Na2SO4, pH 6.7, Michaelis-Menten fit. Type of series: biochemical, Winmispira thermophila.
As to B1, the Km is 626.1 µM.

Another series concerns the target T2, Spirochaeta thermophila YeeE (Spirochaeta thermophila, UniProt G0GAP6 1-328).
T2 construct: YeeE of Spirochaeta thermophila, residues 1-328, UniProt G0GAP6; Membrane protein, kept in 0.1% DDM; The His tag was removed with TEV(S219V) protease; also called StYeeE; TsuA; source: E. coli C41(DE3), purified from the membrane fraction in DDM (Ni-NTA, TEV cleavage, Superdex 200)
T2 sequence (looked up): B1 chain
Put plainly: BLI; StYeeD-His6 (4.82 μM) loaded on a Ni-NTA biosensor, 11.05 μM StYeeE in solution; Octet N1, room temperature; 20 mM Tris-HCl pH 8.0, 300 mM NaCl, 0.1% DDM, 1 mM β-ME; 120 s association, 120 s dissociation; local fitting; 3 measurements. WT was also run with 300 mM Na2SO4 (binding similar) or 300 mM Na2S2O3 (binding significantly decreased). Particulars: both partners purified. (In general: BLI is a label-free optical method that tracks binding on a fibre tip over time.)
In turn, B2 registered a Kd of 1.6 ± 0.2 µM, a dissociation rate constant (koff) of 0.027 ± 0.0029 s⁻¹ and a kon of 17000 ± 2900 M⁻¹ s⁻¹.

As to B3, the affinity, expressed as Kd, was 4.5 ± 6.2 µM; the off-rate (koff) turned out to be 0.14 ± 0.2 s⁻¹; the kon was found to be 17000 ± 10000 M⁻¹ s⁻¹.

B4 came in with a Kd of 1.2 ± 0.1 µM, a koff of 0.035 ± 0.004 s⁻¹ and a kon of 29000 ± 1600 M⁻¹ s⁻¹.

Molecule B5 had a Kd of 17 ± 23 µM, a koff of 0.12 ± 0.16 s⁻¹ and a kon of 9000 ± 1400 M⁻¹ s⁻¹.

In turn, B6 came in with a Kd of 1.7 ± 0.055 µM, a koff of 0.032 ± 0.003 s⁻¹ and a kon of 18000 ± 1300 M⁻¹ s⁻¹.

For B7, the Kd turned out to be 9.5 ± 4.2 µM, the koff amounted to 0.071 ± 0.033 s⁻¹ and the kon worked out at 7500 ± 1300 M⁻¹ s⁻¹.

With B8, the affinity, expressed as Kd, was 4.6 ± 0.22 µM; the koff stood at 0.027 ± 0.0021 s⁻¹; the on-rate (kon) stood at 6000 ± 580 M⁻¹ s⁻¹.

B9: the Kd is 5.6 ± 0.86 µM, the dissociation rate constant (koff) amounted to 0.093 ± 0.023 s⁻¹ and the kon came out at 17000 ± 1600 M⁻¹ s⁻¹.

The molecule B10 registered a Kd of 1.7 ± 0.074 µM, a koff of 0.03 ± 0.0013 s⁻¹ and an on-rate (kon) of 18000 ± 260 M⁻¹ s⁻¹.

As to B11, the affinity, expressed as Kd, was 4.3 ± 0.61 µM; the koff was found to be 0.037 ± 0.0019 s⁻¹; the kon amounted to 8900 ± 1100 M⁻¹ s⁻¹.

Turning to B12, the Kd was 20 ± 2.1 µM, the off-rate constant (koff) came out at 0.16 ± 0.017 s⁻¹ and the kon was found to be 8200 ± 950 M⁻¹ s⁻¹.

B13: the Kd came out at 5.4 ± 0.3 µM, the koff stood at 0.032 ± 0.00058 s⁻¹ and the kon worked out at 5800 ± 330 M⁻¹ s⁻¹.

Another series deals with the molecule itself. Briefly: SEC; purified His-tagged StYeeD(WT) on Superdex 200 Increase 10/300 GL, 10 mM Tris-HCl pH 8.0, 300 mM NaCl; two peaks compared with gel filtration markers.
Details: not given
On to B2, for which the “stoichiometry N” value is 2.
